Experimental data published in patent US9278137B2, “Polymeric conjugates of active principles, their process of preparation and their polymeric intermediates” (SANOFI, priority 2010, dated 2016).
Read-outs that look alike come from different tables or passages of the source.

Assays:
[1] = for In vitro data in rat plasma (release of free cabazitaxel): 37° C., formulation 1 mg/mL; for release profile (in words): comparison of linkers
[2] = Nanoparticle size (hydrodynamic diameter) by dynamic light scattering (DLS); conditions: nanodispersion 10 mg/mL in WFI

Substance | In vitro data in rat plasma (release of free cabazitaxel) ([1]; Time 0 h) | In vitro data in rat plasma (release of free cabazitaxel) ([1]; Time 1 h) | In vitro data in rat plasma (release of free cabazitaxel) ([1]; Time 2 h) | In vitro data in rat plasma (release of free cabazitaxel) ([1]; Time 4 h) | In vitro data in rat plasma (release of free cabazitaxel) ([1]; Time 18 h) | In vitro data in rat plasma (release of free cabazitaxel) ([1]; Time 24 h) | free cabazitaxel released in 24 h ([1]; rat plasma) [%] | release profile (in words) ([1]; rat plasma) | release of succinyl-cabazitaxel from the formulation ([1]; rat plasma, quantified using HPLC) | Mean diameter (using DLS) [2] [nm] | PDI (DLS) [2]
mPEG2000-PLA10000-Y-succinyl-2′-cabazitaxel [VIII′] | 0 | 0.84 | 1.68 | 3.30 | 17.35 | 20.16 | ~17 | slowest release profile | < 1 % of cabazitaxel present initially in the nanoparticles |  | 
mPEG-PLA-diglycolyl-cabazitaxel [XI] | 2.20 | 5.36 | 8.67 | 14.81 | 49.39 | 55.09 | ~47 | relatively rapid release |  | 52 | 0.18
mPEG-PLA-glutaryl-cabazitaxel | 0 | 1.31 | 2.30 | 5.29 | 23.51 | 31.72 | ~27 |  |  | 60 | 0.21
mPEG-PLA-succinyl-larotaxel [IX] |  |  |  |  |  |  |  |  |  | 48 | 0.17
